The values that follow come from patent publication US10329548B2, “Fungal cellobiohydrolases” (Alliance for Sustainable Energy, LLC, priority 2017, dated 2019).

Common to all, as to type: biochemical, Trichoderma reesei
Substrate in series [1]: [H][C@@]1(O[C@H]2[C@H](O)[C@@H](O)[C@H](Oc3ccc([N+](=O)[O-])cc3)O[C@@H]2CO)O[C@H](CO)[C@H](O)[C@H](O)[C@H]1O
Briefly: pNP-Lactopyranoside (pNP-L) assay, kinetics, TrCel7A 1-1d. Particulars: other: TrCel7A 1-1d, 45° C., 30 minutes, pNP-L 8 mM-0.133 mM. The source says: (§1) The wild-type (wt) TrCel7A sequence was aligned with all the high-pNP-L activity sequences in order to identify the corresponding positions of mutations in TrCel7A. Without being bound by theory, these mutations should result in improving pNP-L activity of TrCel7A. PCR-based point mutagenesis or gene synthesis was used to generate the corresponding 9 TrCel7A mutants.
(§2) Cel7A was purified as described in Linger et al., Biotechnol Biofuels 8:45 (2015). Briefly, fermentation broths (˜8 to 10 L) were harvested, vacuum filtered, concentrated, and then loaded onto a 26/10 Phenyl Sepharose Fast Flow column. Buffer A was 20 mM Bis-Tris pH 6.5 and buffer B was 20 mM Bis-Tris pH 6.5, 2.0 M (NH4)2SO4. After binding and washing, a descending gradient of 80% B (1.6 M (NH4)2SO4) to 0% B over eight column volumes was used to elute the bound proteins from the column. Active fractions were identified by a p-nitrophenyl-β-(1-4)-D-lactopyranoside (pNP-L) activity assay. The pNP-L-active fractions were pooled and concentrated as needed. Protein was desalted and exchanged into 20 mM Bis-Tris buffer pH 6.5. […]
(§3) The pNP-L assay was performed by incubating 150 μL of 2 mM pNP-L with 25 μL of sample at 45° C. for 30 minutes. Reactions were quenched with 25 μL of 1 M Na2CO3, and the absorbance at 405 nm was measured. […]

Substrate in series [2]: [H][C@@]1(O[C@H]2[C@H](O)[C@@H](O)[C@H](Oc3ccc([N+](=O)[O-])cc3)O[C@@H]2CO)O[C@H](CO)[C@H](O)[C@H](O)[C@H]1O
Briefly: pNP-Lactopyranoside (pNP-L) assay, kinetics, TrCel7A 2-18c. Particulars: other: TrCel7A 2-18c, 45° C., 30 minutes, pNP-L 8 mM-0.133 mM.
Excerpt: as §1, §2, §3

Substrate in series [3]: [H][C@@]1(O[C@H]2[C@H](O)[C@@H](O)[C@H](Oc3ccc([N+](=O)[O-])cc3)O[C@@H]2CO)O[C@H](CO)[C@H](O)[C@H](O)[C@H]1O
Briefly: pNP-Lactopyranoside (pNP-L) assay, kinetics, TrCel7A 11-35a. Particulars: other: TrCel7A 11-35a, 45° C., 30 minutes, pNP-L 8 mM-0.133 mM.
Excerpt: as §1, §2, §3

Substrate in series [4]: [H][C@@]1(O[C@H]2[C@H](O)[C@@H](O)[C@H](Oc3ccc([N+](=O)[O-])cc3)O[C@@H]2CO)O[C@H](CO)[C@H](O)[C@H](O)[C@H]1O
Nature of the series: pNP-Lactopyranoside (pNP-L) assay, kinetics, TrCel7A 1-11. Particulars: other: TrCel7A 1-11, 45° C., 30 minutes, pNP-L 8 mM-0.133 mM.
Excerpt: as §1, §2, §3

Substrate in series [5]: [H][C@@]1(O[C@H]2[C@H](O)[C@@H](O)[C@H](Oc3ccc([N+](=O)[O-])cc3)O[C@@H]2CO)O[C@H](CO)[C@H](O)[C@H](O)[C@H]1O
Nature of the series: pNP-Lactopyranoside (pNP-L) assay, kinetics, TrCel7A 6-87a. Particulars: other: TrCel7A 6-87a, 45° C., 30 minutes, pNP-L 8 mM-0.133 mM.
Excerpt: as §1, §2, §3

Substrate in series [6]: [H][C@@]1(O[C@H]2[C@H](O)[C@@H](O)[C@H](Oc3ccc([N+](=O)[O-])cc3)O[C@@H]2CO)O[C@H](CO)[C@H](O)[C@H](O)[C@H]1O
Nature of the series: pNP-Lactopyranoside (pNP-L) assay, kinetics, TrCel7A WT. The note with it: other: TrCel7A WT, 45° C., 30 minutes, pNP-L 8 mM-0.133 mM. As to the method: as §2, with “6.5. This sample was then loaded onto a Tricorn 10/100 anion exchange column packed with Source 15Q and eluted with a 0-50% salt gradient over 30 column volumes. Buffers were 20 mM Bis-Tris pH 6.5 (A) and the same supplemented with 1.0 M NaCl (B). pNP-L activity was followed again to identify the active fractions.” for “6.5.”
as §3

Substrate in series [7]: [H][C@@]1(O[C@H]2[C@H](O)[C@@H](O)[C@H](Oc3ccc([N+](=O)[O-])cc3)O[C@@H]2CO)O[C@H](CO)[C@H](O)[C@H](O)[C@H]1O
Nature of the series: pNP-Lactopyranoside (pNP-L) assay, kinetics, TrCel7A 6-53a. Particulars: other: TrCel7A 6-53a, 45° C., 30 minutes, pNP-L 8 mM-0.133 mM.
Excerpt: as §1, §2, §3

Residue numbers refer to the chain shown, from its start. Names may count otherwise.

B1: Trichoderma reesei Cel7A (TrCel7A, SEQ ID NO: 37) variant 1-1d, A241V (with secretion signal) / A224V (without secretion signal) (Trichoderma reesei RUT C-30; … (protein)
chain: QSACTLQSETHPPLTWQKCSSGGTCTQQTGSVVIDANWRWTHATNSSTNCYDGNTWSSTLCPDNETCAKNCCLDGAAYASTYGVTTSGNSLSIGFVTQSAQKNVGARLYLMASDTTYQEFTLLGNEFSFDVDVSQLPCGLNGALYFVSMDADGGVSKYPTNTAGAKYGTGYCDSQCPRDLKFINGQANVEGWEPSSNNANTGIGGHGSCCSEMDIWEANSISEVLTPHPCTTVGQEICEGDGCGGTYSDNRYGGTCDPDGCDWNPYRLGNTSFYGPGSSFTLDTTKKLTVVTQFETSGAINRYYVQNGVTFQQPNAELGSYSGNELNDDYCTAEEAEFGGSSFSDKGGLTQFKKATSGGMVLVMSLWDDYYANMLWLDSTYPTNETSSTPGAVRGSCSTSSGVPAQVESQSPNAKVTFSNIKFGPIGSTGNPSGGNPPGGNPPGTTTTRRPATTTGSSPGPTQSHYGQCGGIGYSGPTVCASGTTCQVLNPYYSQCL
Consider B1, for which, in series [1], the kcat stood at 0.933 ± 0.0667 s⁻¹.

B2: Trichoderma reesei Cel7A (TrCel7A, SEQ ID NO: 37) variant 2-18c, T406S/A389V (with secretion signal) / T389S/A372V (without secretion signal) (Trichoderma … (protein)
chain: B1 chain with V224A, A372V, T389S
In the case of B2, in series [2], the Km was determined as 1980 ± 180 µM and the kcat amounted to 0.467 ± 0.117 s⁻¹.

B3: Trichoderma reesei Cel7A (TrCel7A, SEQ ID NO: 37) variant 11-35a, G461D (with secretion signal) / G444D (without secretion signal) (Trichoderma reesei RUT … (protein)
chain: B1 chain with V224A, G444D
Consider B3, for which, in series [3], the turnover number (kcat) came out at 0.183 s⁻¹.

B4: Trichoderma reesei Cel7A (TrCel7A, SEQ ID NO: 37) variant 1-11, L366M (with secretion signal) / L349M (without secretion signal) (Trichoderma reesei RUT C-30; … (protein)
chain: B1 chain with V224A, L349M
In the case of B4, in series [4], the kcat amounted to 0.182 ± 0.00333 s⁻¹.

B5: Trichoderma reesei Cel7A (TrCel7A, SEQ ID NO: 37) variant 6-87a, D274V (with secretion signal) / D257V (without secretion signal) (Trichoderma reesei RUT C-30; … (protein)
chain: B1 chain with V224A, D257V
On to B5, for which the kcat in series [5] was determined as 0.4 ± 0.0667 s⁻¹.

B6: Trichoderma reesei Cel7A (TrCel7A) wild-type, SEQ ID NO: 37 (Trichoderma reesei RUT C-30) (protein)
chain: B1 chain with V224A
Turning to B6, the catalytic constant (kcat) in series [6] was found to be 0.333 ± 0.0167 s⁻¹.

B7: Trichoderma reesei Cel7A (TrCel7A, SEQ ID NO: 37) variant 6-53a, I110M/Y283N/T462I (with secretion signal) / I93M/Y266N/T445I (without secretion signal) … (protein)
chain: B1 chain with I93M, V224A, Y266N, T445I
In the case of B7, the catalytic constant (kcat) in series [7] is 0.35 ± 0.05 s⁻¹.

As a reminder, the kcat is the maximal rate divided by the concentration of active sites. The Km is the substrate concentration at which the rate is half of its maximum.
